Results as given in PMC11694665, “Open and closed structures of L-arginine oxidase by cryo-electron microscopy and X-ray crystallography” (Journal of Biochemistry, 2024).

T1: PT-AROD (L-arginine oxidase from Pseudomonas sp. TPU 7192) (Pseudomonas putida, UniProt A0A177SH44)
T1 construct: gene AYO28_23740; full length, recombinant in E. coli BL21(DE3) from pET-15b; homooctamer (D4), one FAD per monomer; 4632 residues modelled in octamer (579 per chain)
T1 sequence (A0A177SH44 1-589): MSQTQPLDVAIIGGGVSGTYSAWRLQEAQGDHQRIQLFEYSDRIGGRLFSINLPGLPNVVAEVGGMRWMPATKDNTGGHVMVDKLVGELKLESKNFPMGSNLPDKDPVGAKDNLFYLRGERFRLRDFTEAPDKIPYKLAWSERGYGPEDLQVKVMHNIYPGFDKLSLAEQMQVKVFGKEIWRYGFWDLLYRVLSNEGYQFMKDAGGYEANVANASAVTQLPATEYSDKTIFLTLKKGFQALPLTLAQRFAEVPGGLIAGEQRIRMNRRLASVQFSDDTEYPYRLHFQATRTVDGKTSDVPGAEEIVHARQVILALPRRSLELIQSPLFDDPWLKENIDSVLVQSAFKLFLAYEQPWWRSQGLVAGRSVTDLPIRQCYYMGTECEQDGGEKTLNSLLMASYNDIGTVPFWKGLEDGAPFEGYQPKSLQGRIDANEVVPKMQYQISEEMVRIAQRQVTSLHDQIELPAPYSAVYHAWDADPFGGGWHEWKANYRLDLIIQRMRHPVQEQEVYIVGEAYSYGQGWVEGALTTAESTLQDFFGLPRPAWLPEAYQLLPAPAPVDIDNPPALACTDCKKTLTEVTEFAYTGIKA


What was measured:
[1] = biological target: T1, PT-AROD (L-arginine oxidase from Pseudomonas sp. TPU 7192); assay: cryo-EM ([…] Å) and X-ray crystallography ([…] Å); type: binding; conditions: one FAD per monomer; copurified, 0.2 μM FAD in purification buffers
[2] = biological target: L-arginine oxidase from Pseudomonas sp. TPU 7192 (Pseudomonas sp. TPU 7192); assay: cryo-EM structure; single-particle analysis, 2.5 mg/ml protein in 20 mM HEPES (pH 8.0), 50 mM NaCl, with bound FAD; D4 symmetry; octamer
[3] = biological target: L-arginine oxidase from Pseudomonas sp. TPU 7192 (Pseudomonas sp. TPU 7192); assay: mass photometry; 0.1 mg/ml in SEC buffer (20 mM HEPES pH 8.0, 50 mM NaCl), on a glass coverslip, 60 s, three repeats; molecular weight in solution
[4] = biological target: L-arginine oxidase from Pseudomonas sp. TPU 7192 (Pseudomonas sp. TPU 7192); assay: crystal structure; crystals grown at 20°C from 10 mg/ml protein, 20% w/v PEG 3350, 0.2 M potassium citrate tribasic (pH 8.3); four molecules in the asymmetric unit, octamer made by a symmetry mate
N=C(N)NCCC[C@H](N)C(=O)O = system: T2, N=C(N)NCCC[C@H](N)C(=O)O; assay: peroxidase-coupled colourimetric assay (4-aminoantipyrine/TOOS), non-linear regression; type: biochemical, Pseudomonas putida; conditions: 100 mM Tris-HCl pH 7.0, 37 °C, substrate 0-2.5 mM
T2 construct: full length, recombinant in E. coli BL21(DE3) from pET-15b; homooctamer (D4), one FAD per monomer; 4632 residues modelled in octamer (579 per chain)
Description: (§1) peroxidase-coupled colourimetric assay (4-aminoantipyrine/TOOS), non-linear regression on PT-AROD (L-arginine oxidase from Pseudomonas sp. TPU 7192)

NCCCC[C@H](N)C(=O)O = system: T3, NCCCC[C@H](N)C(=O)O; assay: as above; type: biochemical, Pseudomonas putida; conditions: 100 mM Tris-HCl pH 7.0, 37 °C, substrate 0-10 mM
T3 construct: full length, recombinant in E. coli BL21(DE3) from pET-15b; homooctamer (D4), one FAD per monomer; 4632 residues modelled in octamer (579 per chain)
Description: as §1

[5] = substrate: NCCCC[C@H](N)C(=O)O; assay: as above; type: biochemical, Pseudomonas putida; conditions: 100 mM Tris-HCl pH 7.0, 37 °C, substrate 0-10 mM
Description: as §1

[6] = substrate: N=C(N)NCCC[C@H](N)C(=O)O; assay: as above; type: biochemical, Pseudomonas putida; conditions: 100 mM Tris-HCl pH 7.0, 37 °C, substrate 0-2.5 mM
Description: as §1

Row | Molecule | Km (N=C(N)NCCC[C@H](N)C(=O)O) | kcat (N=C(N)NCCC[C@H](N)C(=O)O) | kcat/Km (N=C(N)NCCC[C@H](N)C(=O)O) | Km (NCCCC[C@H](N)C(=O)O) | kcat (NCCCC[C@H](N)C(=O)O) | kcat/Km (NCCCC[C@H](N)C(=O)O) | also measured
1 | Cc1cc2nc3c(=O)[nH]c(=O)nc-3n(C[C@H](O)[C@H](O)[C@H](O)COP(=O)(O)OP(=O)(O)OC[C@H]3O[C@@H](n4cnc5c(N)ncnc54)[C@H](O)[C@@H]3O)c2cc1C [FAD] | – | – | – | – | – | – | cryo-EM (2.3 Å) and X-ray crystallography (3.4 Å) [1]: We obtained a cryo-EM map of PT-AROD in complex with FAD
2 | L-arginine oxidase from Pseudomonas sp. TPU 7192 (enzyme) | – | – | – | – | – | – | stoichiometry N [2]: 8; stoichiometry N [3]: 8; stoichiometry N [4]: 8
3 | PT-AROD (L-arginine oxidase from Pseudomonas sp. TPU 7192) (Pseudomonas putida; E486A) | 190 µM | 3.5 s⁻¹ | 18000 M⁻¹ s⁻¹ | 1200 µM | 1.1 s⁻¹ | 920 M⁻¹ s⁻¹ | –
4 | PT-AROD (L-arginine oxidase from Pseudomonas sp. TPU 7192) (Pseudomonas putida; Q343E) | 1700 µM | 10.4 s⁻¹ | 6100 M⁻¹ s⁻¹ | 6900 µM | 0.5 s⁻¹ | 72 M⁻¹ s⁻¹ | –
5 | PT-AROD (L-arginine oxidase from Pseudomonas sp. TPU 7192) (Pseudomonas putida) (protein, full length, recombinant in E. coli BL21(DE3) from pET-15b; homooctamer (D4), one FAD per monomer; 4632 residues modelled in octamer (579 per chain)) MSQTQPLDVAIIGGGVSGTYSAWRLQEAQGDHQRIQLFEYSDRIGGRLFSINLPGLPNVVAEVGGMRWMPATKDNTGGHVMVDKLVGELKLESKNFPMGSNLPDKDPVGAKDNLFYLRGERFRLRDFTEAPDKIPYKLAWSERGYGPEDLQVKVMHNIYPGFDKLSLAEQMQVKVFGKEIWRYGFWDLLYRVLSNEGYQFMKDAGGYEANVANASAVTQLPATEYSDKTIFLTLKKGFQALPLTLAQRFAEVPGGLIAGEQRIRMNRRLASVQFSDDTEYPYRLHFQATRTVDGKTSDVPGAEEIVHARQVILALPRRSLELIQSPLFDDPWLKENIDSVLVQSAFKLFLAYEQPWWRSQGLVAGRSVTDLPIRQCYYMGTECEQDGGEKTLNSLLMASYNDIGTVPFWKGLEDGAPFEGYQPKSLQGRIDANEVVPKMQYQISEEMVRIAQRQVTSLHDQIELPAPYSAVYHAWDADPFGGGWHEWKANYRLDLIIQRMRHPVQEQEVYIVGEAYSYGQGWVEGALTTAESTLQDFFGLPRPAWLPEAYQLLPAPAPVDIDNPPALACTDCKKTLTEVTEFAYTGIKA | – | – | – | – | – | – | Km [5]: 20000 µM; kcat [5]: 2.7 s⁻¹; kcat/Km [5]: 140 M⁻¹ s⁻¹; Km [6]: 480 µM; kcat [6]: 6.2 s⁻¹; kcat/Km [6]: 13000 M⁻¹ s⁻¹
